Reference: patent US20140171623A1 (published 2014)

B1: mAb 12G3H11 (wild type hinge), human anti-human EphA2 IgG1 (antibody)
heavy: not shown
light: DIQMTQSPSSLSASVGDRVTITCRASQSISNNLHWYQQKPGKAPKLLIKYAFQSISGVPSRFSGSGSGTDFTFTISSLQPEDFATYYCQQANSWPLTFGGGTKVEIK
notes: domain: CH1;domain: lower hinge, CH2, CH3; Human IgG1/κ from HEK 293 cells; also called Wild type (12G3H11); not shown: human κ chain constant region
B2: 12G3H11 Fc variant 13-2 AA Delete Mid (antibody, human IgG1)
heavy: not shown
light: B1 light
notes: domain: CH1;domain: lower hinge, CH2, CH3; Human IgG1/κ; not shown: human κ chain constant region
B3: 12G3H11 Fc variant 5-GGG Insert Low (antibody, human IgG1)
heavy: not shown
light: B1 light
notes: as for B2
B4: 12G3H11 Fc variant 18-EPKS to PPPP (antibody, human IgG1)
heavy: not shown
light: B1 light
notes: as for B2
B5: 12G3H11 Fc variant 6-GGG Insert High (antibody, human IgG1)
heavy: not shown
light: B1 light
notes: as for B2
B6: 12G3H11 Fc variant 14-T to C Middle (antibody, human IgG1)
heavy: not shown
light: B1 light
notes: as for B2
B7: 12G3H11 Fc variant 17-DKTHT to PPPPP (antibody, human IgG1)
heavy: not shown
light: B1 light
notes: as for B2
B8: 12G3H11 Fc variant 20-KT to WW Mid (antibody, human IgG1)
heavy: not shown
light: B1 light
notes: as for B2
B9: 12G3H11 Fc variant 1-CD Invert (antibody, human IgG1)
heavy: not shown
light: B1 light
notes: as for B2
B10: 12G3H11 Fc variant 8-PP to GG Low (antibody, human IgG1)
heavy: not shown
light: B1 light
notes: as for B2
B11: 12G3H11 Fc variant 19-PP to WW Low (antibody, human IgG1)
heavy: not shown
light: B1 light
notes: as for B2

Each binder was assayed against T1, human EphA2-Fc (human, UniProt P29317 25-534, limits assumed) (assay: KinExA, solution equilibrium titration with human EphA2-Fc).
T1 construct: not shown: Fc part; origin and limits not described
Experimental: Protein concentrations were calculated by the BCA method. […] Coated beads were then separated from unreacted EphA2-Fc using a gentle pulse spin and blocked for approximately 2 h at room temperature with 1 M Tris, pH 8.0, bovine serum albumin 10 mg/mL. Beads were then resuspended in 30 mL of run buffer (PBS, pH 7.4-0.02% NaN₃) and packed into a column. […] The amount of free IgG in the samples was derived from the fluorescence signal obtained after the passing of Cy5-labeled goat anti-human IgG F(ab′)₂ (typically 0.5-2 μg/ml; Jackson ImmunoResearch Laboratories, West Grove, Pa.) through the column. Dissociation constants (KDs) were determined by fitting the individual equilibrium titration data to a 1:1 binding model using the KinExA Pro 1.0.3. software.

T1 sequence (P29317 25-534 limits assumed): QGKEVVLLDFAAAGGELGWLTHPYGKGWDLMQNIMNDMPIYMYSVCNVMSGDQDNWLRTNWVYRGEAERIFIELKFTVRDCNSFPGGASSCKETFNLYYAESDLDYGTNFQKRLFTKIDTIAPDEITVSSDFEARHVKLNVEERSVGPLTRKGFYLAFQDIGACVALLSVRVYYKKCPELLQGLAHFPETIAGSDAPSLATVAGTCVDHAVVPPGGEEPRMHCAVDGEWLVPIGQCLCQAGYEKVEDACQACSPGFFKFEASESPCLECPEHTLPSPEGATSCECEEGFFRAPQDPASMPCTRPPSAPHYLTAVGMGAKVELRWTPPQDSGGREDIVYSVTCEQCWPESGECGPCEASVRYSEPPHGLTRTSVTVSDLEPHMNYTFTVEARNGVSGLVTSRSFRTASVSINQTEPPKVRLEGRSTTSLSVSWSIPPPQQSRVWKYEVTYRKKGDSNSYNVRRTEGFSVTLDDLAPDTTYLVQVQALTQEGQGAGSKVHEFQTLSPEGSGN

Row | Binder | Kd
1 | B1 | 0.0011 nM
2 | B2 | 0.0017 nM
3 | B3 | 0.0008 nM
4 | B4 | 0.0015 nM
5 | B5 | 0.0027 nM
6 | B6 | 0.0072 nM

These binders were tested against T2, human C1q (Quidel) (human, UniProt P02745 23-245; P02746 28-253; P02747 29-245) (assay: SPR (BIAcore 3000), IgG immobilised, soluble human C1q, equilibrium fit).
T2 construct: Bought protein (Quidel, CA); In the CDC assays C1q came with normal human serum complement; also called complement protein C1q; soluble human C1q
Experimental: Protein concentrations were calculated by the bicinchoninic acid methods. The different human IgG1s were coupled to the dextran matrix of a CM5 sensor chip (Pharmacia Biosensor) using an Amine Coupling Kit as described (Johnsson et al., 1991, Anal. Biochem. 198: 268-77) at a surface density of between 4830 and 9221 RU. Excess reactive esters were quenched by injection of 70 μl of 1.0 M ethanolamine hydrochloride, pH 8.5. […] Dilutions and binding experiments were carried out in 50 mM HBS buffer containing 0.01 M HEPES pH 7.4, 0.15 M NaCl, 3 mM EDTA and 0.005% P-20. Data were collected for about […], and two 1-min pulse of 1M NaCl/50 mM NaOH were used to regenerate the surfaces. Human C1q was allowed to flow over an uncoated cell, and the sensorgrams from these blank runs subtracted from those obtained with IgG1-coupled chips.

T2 sequence (P02745 23-245 limits assumed, chain 1 of 3): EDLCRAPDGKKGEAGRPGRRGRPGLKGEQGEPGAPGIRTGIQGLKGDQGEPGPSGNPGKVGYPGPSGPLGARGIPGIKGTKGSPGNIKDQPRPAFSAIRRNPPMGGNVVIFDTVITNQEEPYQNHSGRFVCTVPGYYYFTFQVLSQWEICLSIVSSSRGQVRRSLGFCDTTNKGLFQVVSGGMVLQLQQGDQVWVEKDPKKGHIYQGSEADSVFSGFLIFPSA
T2 sequence (P02746 28-253 limits assumed, chain 2 of 3): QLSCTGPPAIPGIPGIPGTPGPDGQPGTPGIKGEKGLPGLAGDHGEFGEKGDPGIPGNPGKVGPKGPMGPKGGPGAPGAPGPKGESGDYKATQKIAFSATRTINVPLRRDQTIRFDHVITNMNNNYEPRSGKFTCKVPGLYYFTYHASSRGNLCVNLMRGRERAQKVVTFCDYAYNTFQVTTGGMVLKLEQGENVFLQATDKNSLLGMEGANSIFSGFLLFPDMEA
T2 sequence (P02747 29-245 limits assumed, chain 3 of 3): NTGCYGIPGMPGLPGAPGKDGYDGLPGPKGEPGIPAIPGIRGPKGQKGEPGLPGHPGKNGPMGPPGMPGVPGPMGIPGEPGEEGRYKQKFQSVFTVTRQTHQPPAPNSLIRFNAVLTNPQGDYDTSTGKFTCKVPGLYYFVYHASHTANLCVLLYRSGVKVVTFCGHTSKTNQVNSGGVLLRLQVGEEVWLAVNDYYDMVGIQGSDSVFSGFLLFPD

Row | Binder | Kd
7 | B1 | 89 nM
8 | B3 | 282 nM
9 | B7 | 91 nM
10 | B8 | 61 nM
11 | B9 | 92 nM
12 | B4 | 75 nM
13 | B10 | 155 nM
14 | B11 | 274 nM

These binders were tested against T3, FLAG-tagged extracellular domain of human FcγRIIIA (F158 allotype) (human, UniProt P08637 17-208) (assay: SPR (BIAcore 3000), IgG immobilised, soluble FLAG-tagged human FcγRIIIA, equilibrium fit).
T3 construct: extracellular domain; Secreted from HEK 293 cells, purified on anti-FLAG M2 agarose; also called FLAG-tagged FcγRIIIA; Flag-tagged Human FcγRIIIA; not shown: FLAG tag
Experimental: Protein concentrations were calculated by the bicinchoninic acid methods. The different human IgG1s were coupled to the dextran matrix of a CM5 sensor chip (Pharmacia Biosensor) using an Amine Coupling Kit as described (Johnsson et al., 1991, Anal. Biochem. 198: 268-77) at a surface density of between 7765 and 8385 RU. Excess reactive esters were quenched by injection of 70 μl of 1.0 M ethanolamine hydrochloride, pH 8.5. […] Dilutions and binding experiments were carried out in 50 mM HBS buffer containing 0.01 M HEPES pH 7.4, 0.15 M NaCl, 3 mM EDTA and 0.005% P-20. Data were collected for about 50 min, and one 30 sec pulse of 5 mM HCl was used to regenerate the surfaces. Flag-tagged human FcγRIIIA was allowed to flow over an uncoated cell, and the sensorgrams from these blank runs subtracted from those obtained with IgG1-coupled chips.

T3 sequence (P08637 17-208): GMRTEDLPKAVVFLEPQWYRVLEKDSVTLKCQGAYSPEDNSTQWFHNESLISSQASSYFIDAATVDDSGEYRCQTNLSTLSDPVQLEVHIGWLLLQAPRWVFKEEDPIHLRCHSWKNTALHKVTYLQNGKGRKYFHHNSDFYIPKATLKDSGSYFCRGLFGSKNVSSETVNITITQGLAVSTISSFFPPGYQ

Row | Binder | Kd
15 | B1 | 6050 nM
16 | B10 | 6400 nM
